Data on one molecule can be found in patent US12281155.

What all share (conditions): remark: other sources report otherwise
Test [1] addresses T1, recombinant SARS-CoV-2 Spike RBD domain, Delta variant (SARS-CoV-2). The experiment in a line: ELISA on coated RBD. On the technique in general: An ELISA detects its analyte on a solid surface through an enzyme-linked reagent.
Test [2] deals with T2, recombinant SARS-CoV-2 Spike RBD domain, BA.4/5 variant (SARS-CoV-2). The experiment in a line: ELISA on coated RBD.
Test [3] addresses T3, recombinant SARS-CoV-2 Spike RBD domain, BA.2 variant (SARS-CoV-2). Briefly: ELISA on coated RBD.
For test [4], the target named is T1, recombinant SARS-CoV-2 Spike RBD …. Briefly: competition ELISA, blocking of RBD binding to ACE2 ectodomain.
The target of test [5] is T2, recombinant SARS-CoV-2 Spike RBD …. The description is as above.
For test [6], the target named is T3, recombinant SARS-CoV-2 Spike RBD …. The description is as above.

B1: SPK002 antibody (parental version Cv2.3194 described in WO 2022/228827) (antibody, V domains shown)
VH: EVQLVESGGGLIQPGGSLRLSCAASGITVTSNYMSWVRQAPGKGLEWVSVIYPGGSTFYADSVKGRFTISRDNSKNTLYLQMNSLRAEDTAVYYCARDLVVYGMDVWGQGTTVTVS
VL: EIVLTQSPGTLSLSPGERATLSCRASQSVSSSYLAWYQQKPGQAPRLLIYGASSRATGIPGRFSGSGSGTDFTLTISRLEPEDFAIYYCQQGVTFGGGTKVEIK
On to B1, for which the figures for the Binding AUC in test [1], in test [2] and in test [3] were 34, 33 and 33, respectively. The results for the Blocking % in test [4], in test [5] and in test [6] were 93%, 92% and 94%, respectively.
